From publication PMC7667529

Biological target: megalin (low-density lipoprotein receptor-related protein 2) (mouse (endogenous in hippocampal neurons)) (UniProt A2ARV4)
Sequence (A2ARV4 26-4660): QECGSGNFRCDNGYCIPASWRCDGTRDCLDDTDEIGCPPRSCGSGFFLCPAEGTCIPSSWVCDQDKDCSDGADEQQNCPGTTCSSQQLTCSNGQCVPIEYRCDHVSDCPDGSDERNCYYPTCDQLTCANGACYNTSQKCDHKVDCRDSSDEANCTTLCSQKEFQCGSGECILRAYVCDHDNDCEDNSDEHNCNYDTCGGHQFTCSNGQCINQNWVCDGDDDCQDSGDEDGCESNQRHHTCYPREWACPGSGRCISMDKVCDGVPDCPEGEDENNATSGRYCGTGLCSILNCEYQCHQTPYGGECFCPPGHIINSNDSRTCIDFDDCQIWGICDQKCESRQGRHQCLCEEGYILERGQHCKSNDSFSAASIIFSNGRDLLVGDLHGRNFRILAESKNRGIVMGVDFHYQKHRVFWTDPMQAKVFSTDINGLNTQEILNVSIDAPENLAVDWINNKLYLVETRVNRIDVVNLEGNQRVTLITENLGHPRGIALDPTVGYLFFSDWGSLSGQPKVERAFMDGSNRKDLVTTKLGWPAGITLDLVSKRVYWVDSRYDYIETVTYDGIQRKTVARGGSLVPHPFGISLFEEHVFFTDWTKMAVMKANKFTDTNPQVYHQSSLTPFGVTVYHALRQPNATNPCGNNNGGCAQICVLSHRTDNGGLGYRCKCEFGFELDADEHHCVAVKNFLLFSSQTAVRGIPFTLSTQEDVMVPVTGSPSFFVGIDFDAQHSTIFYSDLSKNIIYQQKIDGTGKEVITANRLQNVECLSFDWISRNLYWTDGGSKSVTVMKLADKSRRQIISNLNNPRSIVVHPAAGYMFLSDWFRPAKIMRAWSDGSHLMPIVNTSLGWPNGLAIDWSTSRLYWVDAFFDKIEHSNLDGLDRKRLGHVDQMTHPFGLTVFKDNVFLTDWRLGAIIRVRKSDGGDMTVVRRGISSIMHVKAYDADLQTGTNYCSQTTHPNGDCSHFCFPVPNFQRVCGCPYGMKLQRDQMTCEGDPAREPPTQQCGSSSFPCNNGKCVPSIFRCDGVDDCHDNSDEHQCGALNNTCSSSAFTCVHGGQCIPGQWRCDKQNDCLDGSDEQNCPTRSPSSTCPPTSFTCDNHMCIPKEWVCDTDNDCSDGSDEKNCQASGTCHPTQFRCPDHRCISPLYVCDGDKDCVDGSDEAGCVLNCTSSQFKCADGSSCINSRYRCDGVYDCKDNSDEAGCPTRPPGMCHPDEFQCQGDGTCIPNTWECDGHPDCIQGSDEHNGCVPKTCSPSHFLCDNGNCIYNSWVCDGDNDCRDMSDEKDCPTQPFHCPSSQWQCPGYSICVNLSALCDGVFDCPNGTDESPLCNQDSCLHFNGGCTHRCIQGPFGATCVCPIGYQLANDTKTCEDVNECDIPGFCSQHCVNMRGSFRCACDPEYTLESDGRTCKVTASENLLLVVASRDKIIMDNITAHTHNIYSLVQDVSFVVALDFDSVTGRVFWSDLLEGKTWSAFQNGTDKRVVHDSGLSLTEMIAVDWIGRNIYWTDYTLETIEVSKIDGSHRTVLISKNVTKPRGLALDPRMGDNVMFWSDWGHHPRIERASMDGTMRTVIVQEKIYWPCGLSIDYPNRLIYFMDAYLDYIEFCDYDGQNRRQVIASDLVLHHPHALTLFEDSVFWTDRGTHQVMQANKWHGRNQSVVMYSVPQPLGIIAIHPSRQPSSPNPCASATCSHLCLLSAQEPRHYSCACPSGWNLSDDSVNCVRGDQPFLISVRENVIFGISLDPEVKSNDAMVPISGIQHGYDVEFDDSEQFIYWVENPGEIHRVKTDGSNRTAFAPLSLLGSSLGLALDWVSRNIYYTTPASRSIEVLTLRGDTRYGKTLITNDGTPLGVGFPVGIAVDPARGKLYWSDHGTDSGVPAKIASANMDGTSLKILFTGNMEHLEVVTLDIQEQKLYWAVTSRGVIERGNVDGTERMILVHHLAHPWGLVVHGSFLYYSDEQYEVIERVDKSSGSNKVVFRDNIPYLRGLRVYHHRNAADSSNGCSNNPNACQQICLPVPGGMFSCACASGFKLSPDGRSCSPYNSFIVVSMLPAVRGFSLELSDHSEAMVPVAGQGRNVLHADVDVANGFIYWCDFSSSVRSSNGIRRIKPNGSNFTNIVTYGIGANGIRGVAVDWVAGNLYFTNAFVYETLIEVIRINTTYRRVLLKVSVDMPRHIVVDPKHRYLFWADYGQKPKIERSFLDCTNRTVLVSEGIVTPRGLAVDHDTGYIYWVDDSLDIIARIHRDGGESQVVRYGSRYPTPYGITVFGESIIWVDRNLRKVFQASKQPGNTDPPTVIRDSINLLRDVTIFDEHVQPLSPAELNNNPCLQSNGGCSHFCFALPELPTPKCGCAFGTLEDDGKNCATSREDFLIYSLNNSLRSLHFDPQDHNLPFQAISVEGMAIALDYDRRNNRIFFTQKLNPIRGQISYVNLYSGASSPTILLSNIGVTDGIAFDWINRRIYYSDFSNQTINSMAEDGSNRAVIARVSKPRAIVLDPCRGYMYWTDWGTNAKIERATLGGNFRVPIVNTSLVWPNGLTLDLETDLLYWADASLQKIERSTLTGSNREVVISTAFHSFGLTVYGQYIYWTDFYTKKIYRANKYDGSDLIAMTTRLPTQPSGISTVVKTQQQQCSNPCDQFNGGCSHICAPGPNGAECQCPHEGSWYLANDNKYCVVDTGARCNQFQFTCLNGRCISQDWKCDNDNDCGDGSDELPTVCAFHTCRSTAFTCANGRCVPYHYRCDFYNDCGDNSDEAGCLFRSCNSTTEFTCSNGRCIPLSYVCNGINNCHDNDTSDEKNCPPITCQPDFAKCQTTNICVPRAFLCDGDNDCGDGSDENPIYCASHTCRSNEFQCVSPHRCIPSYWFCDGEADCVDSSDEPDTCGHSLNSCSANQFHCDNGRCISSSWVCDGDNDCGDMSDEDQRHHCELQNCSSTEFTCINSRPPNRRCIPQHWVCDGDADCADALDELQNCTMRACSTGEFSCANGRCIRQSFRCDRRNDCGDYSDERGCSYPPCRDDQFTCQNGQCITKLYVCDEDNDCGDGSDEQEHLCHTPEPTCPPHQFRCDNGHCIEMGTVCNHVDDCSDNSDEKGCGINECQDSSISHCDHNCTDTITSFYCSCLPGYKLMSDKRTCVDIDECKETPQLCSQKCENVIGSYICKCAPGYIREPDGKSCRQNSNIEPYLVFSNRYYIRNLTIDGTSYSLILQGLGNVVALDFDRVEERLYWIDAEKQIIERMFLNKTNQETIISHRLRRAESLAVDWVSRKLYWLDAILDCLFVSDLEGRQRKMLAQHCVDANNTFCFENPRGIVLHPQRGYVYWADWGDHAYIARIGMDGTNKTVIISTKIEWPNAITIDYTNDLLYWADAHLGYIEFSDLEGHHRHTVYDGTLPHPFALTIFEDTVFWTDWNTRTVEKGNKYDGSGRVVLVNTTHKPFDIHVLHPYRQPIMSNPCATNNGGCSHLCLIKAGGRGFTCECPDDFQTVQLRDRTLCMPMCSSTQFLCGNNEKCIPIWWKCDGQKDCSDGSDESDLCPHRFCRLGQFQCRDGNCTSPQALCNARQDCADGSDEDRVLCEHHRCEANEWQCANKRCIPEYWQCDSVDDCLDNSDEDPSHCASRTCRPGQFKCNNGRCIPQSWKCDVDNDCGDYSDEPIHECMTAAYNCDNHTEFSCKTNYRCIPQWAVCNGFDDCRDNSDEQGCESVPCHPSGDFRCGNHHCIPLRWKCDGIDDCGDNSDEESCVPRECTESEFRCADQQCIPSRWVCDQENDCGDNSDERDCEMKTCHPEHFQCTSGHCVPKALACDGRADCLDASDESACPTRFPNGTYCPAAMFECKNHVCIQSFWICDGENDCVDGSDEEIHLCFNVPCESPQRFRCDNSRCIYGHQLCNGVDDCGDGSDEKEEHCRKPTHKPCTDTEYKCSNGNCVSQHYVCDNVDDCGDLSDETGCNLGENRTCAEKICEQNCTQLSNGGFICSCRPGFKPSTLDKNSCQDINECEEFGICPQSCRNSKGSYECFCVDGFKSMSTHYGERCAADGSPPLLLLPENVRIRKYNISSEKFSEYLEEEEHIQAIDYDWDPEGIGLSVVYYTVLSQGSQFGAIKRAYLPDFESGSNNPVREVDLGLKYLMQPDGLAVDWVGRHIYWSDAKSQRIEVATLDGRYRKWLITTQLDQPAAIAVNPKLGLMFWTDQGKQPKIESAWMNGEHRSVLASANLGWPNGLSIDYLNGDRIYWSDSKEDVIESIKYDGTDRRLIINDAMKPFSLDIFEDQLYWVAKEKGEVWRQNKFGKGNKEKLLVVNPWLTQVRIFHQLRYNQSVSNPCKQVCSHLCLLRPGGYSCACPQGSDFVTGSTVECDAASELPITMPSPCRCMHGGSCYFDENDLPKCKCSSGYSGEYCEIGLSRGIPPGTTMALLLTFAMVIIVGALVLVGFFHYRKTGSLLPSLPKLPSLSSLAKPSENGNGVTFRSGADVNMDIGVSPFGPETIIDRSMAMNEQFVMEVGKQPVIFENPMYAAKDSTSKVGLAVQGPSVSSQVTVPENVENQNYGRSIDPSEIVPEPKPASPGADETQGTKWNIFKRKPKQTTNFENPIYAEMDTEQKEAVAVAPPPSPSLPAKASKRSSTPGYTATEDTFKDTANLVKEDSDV

LRP2-ICD level (western blot, anti-GFP) in TTR KO neurons transfected with short-megalin-GFP and stimulated with recombinant mouse TTR (55 µg/ml, 4 h): 50 % increase
LRP2-ICD level (western blot, anti-megalin) in non-transfected WT hippocampal neurons (15 DIV) after 5 min with recombinant mouse TTR (55 µg/ml): 5 fold
Substance: recombinant mouse transthyretin (from UniProt P07309 21-147) (ligand)
